Reference: US20240207377A1

Target: Recombinant Human TACE/ADAM17 (930-ADB, R&D Systems) (human) (UniProt P78536)
Assay: cell-based or functional assay

Chain of UniProt P78536 (P78536 215-671 limits assumed): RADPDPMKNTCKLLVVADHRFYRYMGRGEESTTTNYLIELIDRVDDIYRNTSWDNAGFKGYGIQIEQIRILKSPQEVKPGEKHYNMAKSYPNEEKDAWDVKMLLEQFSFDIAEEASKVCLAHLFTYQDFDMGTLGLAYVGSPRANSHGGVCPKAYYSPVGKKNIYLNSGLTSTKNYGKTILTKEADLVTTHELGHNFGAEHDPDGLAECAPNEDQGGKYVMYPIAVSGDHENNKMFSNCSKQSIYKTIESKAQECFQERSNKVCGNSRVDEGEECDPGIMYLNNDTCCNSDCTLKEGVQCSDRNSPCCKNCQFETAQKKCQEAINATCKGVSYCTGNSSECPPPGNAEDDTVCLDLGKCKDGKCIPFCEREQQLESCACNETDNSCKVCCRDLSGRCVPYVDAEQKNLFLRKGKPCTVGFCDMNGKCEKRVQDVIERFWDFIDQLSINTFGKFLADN

**Q.** With “human alpha-1-antitrypsin (AAT) (Sigma Aldrich, batch A6150) (from UniProt P01009 25-418)” as the substance, how does the TACE activity in a cell-free assay (fluorogenic peptide substrate Mca-PLAQAV-Dpa-RSSSR-NH2), IC50 read?
**A.** 15.3 µM
